Data taken from patent US20170335333.

Columns and labels:
[1] = tested on: McsS-YebF fusion peptide
[2] = tested on: Microcin S peptide

For Microcin immunity protein (mcsI), which “OD600 growth of E. coli Top10 after induction with 0.125% v/v L-arabinose” value [1] is on record?
The value was “the OD600 reading was restored significantly compared to the un-induced and control cultures”.

And the “OD600 growth of E. coli Top10 after induction with 0.125% v/v L-arabinose” value [2]?
The value was “the OD600 reading was restored significantly compared to the un-induced and control cultures”.
